The target in this test is Full-length human RAB5 (RAB5A), purified, fluorescently labelled (human) (UniProt P20339). As to the kind of experiment: MST.
Chain of UniProt P20339 (P20339 whole entry): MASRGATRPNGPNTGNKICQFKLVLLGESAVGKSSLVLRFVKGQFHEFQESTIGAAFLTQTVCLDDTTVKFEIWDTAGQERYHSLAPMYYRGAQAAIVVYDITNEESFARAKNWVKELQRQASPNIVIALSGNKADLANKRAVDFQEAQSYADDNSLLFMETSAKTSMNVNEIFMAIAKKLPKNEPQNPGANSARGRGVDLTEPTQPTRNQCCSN

As a reminder, the Kd is the constant that tells how readily two partners part at equilibrium. The low end stands for a tighter complex, the high end for a looser complex. The substance “6x His-tagged Etf-2^ΔHY (Etf-2 lacking the hydrophobic domain, amino acids 132-151) (natural protein)” yielded a Kd of 0.0213 µM.

Source of the values: publication PMC6156607.
